# According to patent US20260250421A1 (BIOCYTOGEN PHARMACEUTICALS BEIJING, published 2026):
# Changes are numbered by the printed parent chain.
# T1: His-tagged human PTK7 protein (human, UniProt Q13308 31-704)
# T1 construct: Bought protein; also called hPTK7-His; not shown: His tag
# T1 sequence: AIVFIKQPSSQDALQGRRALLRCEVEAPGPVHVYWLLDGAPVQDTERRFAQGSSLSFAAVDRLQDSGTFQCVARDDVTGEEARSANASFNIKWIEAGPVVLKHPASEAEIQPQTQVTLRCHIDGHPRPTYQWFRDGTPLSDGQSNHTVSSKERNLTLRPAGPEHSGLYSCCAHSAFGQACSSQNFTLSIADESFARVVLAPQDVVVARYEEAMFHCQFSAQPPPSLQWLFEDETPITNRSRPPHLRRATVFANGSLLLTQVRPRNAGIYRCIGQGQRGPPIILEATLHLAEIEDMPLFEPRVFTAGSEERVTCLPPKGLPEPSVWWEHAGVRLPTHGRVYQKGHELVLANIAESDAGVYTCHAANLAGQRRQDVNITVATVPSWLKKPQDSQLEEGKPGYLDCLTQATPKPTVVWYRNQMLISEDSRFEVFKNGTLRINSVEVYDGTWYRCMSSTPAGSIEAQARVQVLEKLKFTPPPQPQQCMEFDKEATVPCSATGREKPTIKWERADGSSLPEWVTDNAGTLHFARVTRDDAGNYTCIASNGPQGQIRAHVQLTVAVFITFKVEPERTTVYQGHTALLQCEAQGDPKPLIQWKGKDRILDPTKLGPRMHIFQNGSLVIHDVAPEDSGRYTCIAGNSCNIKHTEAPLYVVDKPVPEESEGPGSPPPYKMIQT
# T2: human PTK7 on human cancer cell lines (human, UniProt Q13308 31-1070)
# T2 construct: Endogenous PTK7 of human tumour cell lines; also called PTK7 on A-431, NCI-H520, NCI-N87, SK-OV-3, BT-20, HCC1954, NCI-H226, NCI-H358, HCT116, PC-3, NCI-H292, NCI-H1975 cells
# T2 sequence: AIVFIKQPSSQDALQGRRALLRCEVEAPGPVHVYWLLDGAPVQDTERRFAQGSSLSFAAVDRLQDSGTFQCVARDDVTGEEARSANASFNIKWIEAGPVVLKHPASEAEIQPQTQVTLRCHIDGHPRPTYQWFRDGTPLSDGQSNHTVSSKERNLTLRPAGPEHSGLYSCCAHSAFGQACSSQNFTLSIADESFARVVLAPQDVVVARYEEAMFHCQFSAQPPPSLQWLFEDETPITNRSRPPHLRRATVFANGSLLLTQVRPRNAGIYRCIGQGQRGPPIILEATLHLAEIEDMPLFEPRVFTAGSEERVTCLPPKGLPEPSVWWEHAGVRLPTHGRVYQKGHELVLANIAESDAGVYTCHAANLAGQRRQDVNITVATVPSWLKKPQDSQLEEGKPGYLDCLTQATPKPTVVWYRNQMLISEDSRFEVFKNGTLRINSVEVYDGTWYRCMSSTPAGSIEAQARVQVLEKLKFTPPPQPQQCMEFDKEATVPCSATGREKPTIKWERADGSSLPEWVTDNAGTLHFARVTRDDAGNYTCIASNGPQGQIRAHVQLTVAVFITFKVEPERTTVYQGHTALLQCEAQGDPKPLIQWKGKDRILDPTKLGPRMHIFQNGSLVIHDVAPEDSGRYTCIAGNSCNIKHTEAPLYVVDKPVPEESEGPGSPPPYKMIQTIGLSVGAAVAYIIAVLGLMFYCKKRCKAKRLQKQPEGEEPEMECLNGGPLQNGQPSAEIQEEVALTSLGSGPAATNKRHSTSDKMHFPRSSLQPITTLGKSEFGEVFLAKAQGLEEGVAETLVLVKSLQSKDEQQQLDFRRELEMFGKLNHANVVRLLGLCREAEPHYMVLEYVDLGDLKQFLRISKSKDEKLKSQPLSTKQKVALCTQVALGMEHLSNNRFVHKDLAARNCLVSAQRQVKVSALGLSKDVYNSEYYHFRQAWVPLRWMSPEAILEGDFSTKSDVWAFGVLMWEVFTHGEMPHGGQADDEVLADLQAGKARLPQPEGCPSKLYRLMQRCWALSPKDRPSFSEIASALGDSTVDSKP
# B1: 3C4 (antibody, V domains shown)
# VH: QVQLEQSRAEVKKPGESLRISCKGSGYSFTSYWISWVRQMPGKGLEWMGRIDPSDSYTNYNPSFQGHVTISADKSISTAYLQWSSLKASDTAMYYCARRDGSYFDFDYWGQGTLVTVSS
# VL: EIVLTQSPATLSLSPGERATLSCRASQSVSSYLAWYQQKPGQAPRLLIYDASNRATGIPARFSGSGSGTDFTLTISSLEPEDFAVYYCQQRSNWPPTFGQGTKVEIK
# notes: also called anti-PTK7 antibody 3C4
# B2: 3E6 (antibody, V domains shown)
# VH: B1 VH with E5V, Q6E, R8G, K23R, N59K, N61S, S102D
# VL: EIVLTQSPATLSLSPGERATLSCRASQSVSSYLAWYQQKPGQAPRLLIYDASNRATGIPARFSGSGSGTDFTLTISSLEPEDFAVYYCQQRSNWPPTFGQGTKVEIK
# notes: also called anti-PTK7 antibody 3E6
# B3: 1F2 (antibody, V domains shown)
# VH: QVQLVQSGGGLVQPGGSLRLSCAASGFTFSRYEMNWVRQAPGKGLEWVSYINSIGSAINYADSVKGRFTISRDNAKNSLYLQMRSLRAEDTAVYYCVREDNWNPGYWGQGTLVTVSS
# VL: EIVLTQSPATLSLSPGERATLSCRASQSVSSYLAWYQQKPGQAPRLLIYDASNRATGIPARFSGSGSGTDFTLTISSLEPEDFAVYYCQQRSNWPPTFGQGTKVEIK
# notes: also called anti-PTK7 antibody 1F2
# B4: 1A7 (antibody, human IgG1, V domains shown)
# VH: QVQLVESGGGVVQPGRSLRLSCAASGFTFSNYGMHWVRQAPGKGLEWVAVIYYDGSNKFYADSVKGRFTISRDNSKNTLYLQMSSLRAEDTAVYYCARDVAPPGSRAEYFHHWGQGTLVTVSS
# VL: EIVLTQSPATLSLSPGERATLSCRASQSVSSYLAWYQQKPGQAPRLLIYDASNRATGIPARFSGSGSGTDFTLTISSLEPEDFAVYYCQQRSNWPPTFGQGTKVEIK
# notes: also called anti-PTK7 antibody 1A7
# B5: 2D11 (antibody, V domains shown)
# VH: B4 VH with N31S, Y52F, F59Y, S84N, A92S, P102A, H111Q, H112N
# VL: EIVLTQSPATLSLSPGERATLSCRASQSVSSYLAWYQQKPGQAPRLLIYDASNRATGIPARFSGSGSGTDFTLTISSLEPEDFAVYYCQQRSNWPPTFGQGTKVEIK
# notes: also called anti-PTK7 antibody 2D11
# B6: 2A5 (antibody, V domains shown)
# VH: B4 VH with E6Q, Y52W, S56R, F59Y, S84N, P103A, H111Q, H112N
# VL: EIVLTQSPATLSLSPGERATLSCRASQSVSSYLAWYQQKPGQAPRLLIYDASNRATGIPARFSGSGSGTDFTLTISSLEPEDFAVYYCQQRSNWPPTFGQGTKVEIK
# notes: also called anti-PTK7 antibody 2A5
# B7: 2F5 (antibody, V domains shown)
# VH: B4 VH with A23V, V50I, F59Y, S84N, P102A, P103A, F110L
# VL: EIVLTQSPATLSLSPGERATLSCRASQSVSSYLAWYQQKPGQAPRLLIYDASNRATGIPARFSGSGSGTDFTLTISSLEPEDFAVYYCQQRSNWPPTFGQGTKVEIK
# notes: also called anti-PTK7 antibody 2F5
# B8: 1A11 (antibody, V domains shown)
# VH: QVQLVQSGPGLVKPSETLSLTCTVSGGSINSYYWNWIRQPPGKGLEWIGYIYYSGSTNYNPSLKSRVTISVDTSKNQFSLKLSSVTAADTAVYYCARDPHDYIRGHFDLWGRGTLFTVSS
# VL: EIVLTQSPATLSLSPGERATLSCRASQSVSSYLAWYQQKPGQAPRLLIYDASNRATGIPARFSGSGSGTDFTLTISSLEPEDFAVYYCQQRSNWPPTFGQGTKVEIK
# notes: also called anti-PTK7 antibody 1A11
# Molecular target: T1, His-tagged human PTK7 protein
# Experiment: BLI Octet binning on hPTK7-His; competitor 2D11
# Protocol: (§1) Relative positions of target protein epitope between a pair of purified anti-PTK7 antibodies were analyzed by Biolayer Interferometry (BLI) using ForteBio Octet system at 30° C. A total of […] purified antibodies were used: 1A7, 1A11, 1F2, 2A5, 2D11, 2F5, 3C4 and 3E6.
# (§2) 1×HBS-EP+ buffer (10 mM 4-(2-hydroxyethyl)-1-piperazineethanesulfonic acid (HEPES), 150 mM NaCl, 3 mM ethylenediaminetetraacetic acid (EDTA) and 0.05% P20, pH7.4) diluted from HBS-EP+ buffer (10×) was used as the running buffer throughout the experiment. His-tagged human PTK7 protein was captured at a flow rate of 10 μL/min, and 200 nM of antibody (Analyte 1) was injected at a flow rate of 30 μL/min to bind the ligand. Another antibody (Analyte 2) was injected under the same conditions to determine whether the binding of different antibodies interfered with each other. The binding time was 300 s for each antibody.
# (§3) The binding value of each antibody was obtained using Data Analysis HT 12.0. To quantify the interference of one antibody binding to another, a binding ratio was calculated to compare each pair of antibodies. The binding ratio is defined as the binding value of the second antibody (Analyte 2), divided by the binding value of the first antibody (Analyte 1). […] In general, antibody pairs that interfere with each other have the same or overlapping epitopes.
row,Binder,binding ratio
1,B1,0.91
2,B2,0.76
3,B3,0.62
4,B4,0.1
5,B5,0.15
6,B6,-0.07
7,B7,0.07
8,B8,0.71

# Molecular target: T1, His-tagged human PTK7 protein
# Experiment: BLI Octet binning on hPTK7-His; competitor 3C4
# Protocol: as §1, §2, §3
row,Binder,binding ratio
1,B1,0.16
2,B2,0.11
3,B3,0.48
4,B4,0.66
5,B5,0.81
6,B6,0.62
7,B7,0.71
8,B8,0.67

# Molecular target: T1, His-tagged human PTK7 protein
# Experiment: BLI Octet binning on hPTK7-His; competitor 1A11
# Protocol: as §1, §2, §3
row,Binder,binding ratio
1,B1,0.84
2,B2,0.71
3,B3,0.64
4,B4,0.74
5,B5,0.83
6,B6,0.62
7,B7,0.71
8,B8,-0.01

# Molecular target: T2, human PTK7 on human cancer cell lines
# Experiment: flow cytometry, NCI-N87 cells, Ab 5 ug/mL
# Protocol: (§4) The binding activity of anti-PTK7 antibodies to cancer cell lines was verified by flow cytometry. […] Purified anti-PTK7 antibody with a concentration of 5 μg/mL was added to each well and was incubated at 4° C. for 30 minutes. […] The cells were collected, and the mean fluorescence intensity (MFI) was determined. Human IgG1 was used as ISO control.
row,Binder,MFI
1,B1,139000
2,B2,180000
3,B3,108000
4,B4,75700
5,B5,217000
6,B6,152000
7,B7,69400
8,B8,158000

# Molecular target: T1, His-tagged human PTK7 protein
# Experiment: BLI Octet binning on hPTK7-His; competitor hu24 analog
# Protocol: as §1, §2, §3
row,Binder,binding ratio
1,B1,1.22
2,B2,0.98
3,B3,0.95
4,B4,0.2
5,B5,0.21
6,B6,0.04
7,B7,0.19
8,B8,0.97

# Molecular target: T2, human PTK7 on human cancer cell lines
# Experiment: flow cytometry, NCI-H226 cells, Ab 5 ug/mL
# Protocol: as §4
row,Binder,MFI
1,B1,167000
2,B2,193000
3,B3,94900
4,B4,80200
5,B5,180000
6,B6,141000
7,B7,80900
8,B8,152000

# Molecular target: T2, human PTK7 on human cancer cell lines
# Experiment: flow cytometry, BT-20 cells, Ab 5 ug/mL
# Protocol: as §4
row,Binder,MFI
1,B1,148000
2,B2,152000
3,B3,50900
4,B4,86200
5,B5,172000
6,B6,137000
7,B7,83800
8,B8,136000
